According to patent US20220332804A1 (CSL INNOVATION, published 2022):
Numbering of substitutions follows the chain as printed.

Experiments:
Assay in all cases: SPR; KD relative to WT C2;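 note: biacore SPR at 37 °C, anti-C2 mAbs captured on an anti-human IgG chip, alanine or serine C2 surface mutants tested, KD from 1:1 fit compared with wild-type C2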
human C2 G677A = biological target: T1, human C2 G677A (human, UniProt P06681 21-752)
T1 sequence: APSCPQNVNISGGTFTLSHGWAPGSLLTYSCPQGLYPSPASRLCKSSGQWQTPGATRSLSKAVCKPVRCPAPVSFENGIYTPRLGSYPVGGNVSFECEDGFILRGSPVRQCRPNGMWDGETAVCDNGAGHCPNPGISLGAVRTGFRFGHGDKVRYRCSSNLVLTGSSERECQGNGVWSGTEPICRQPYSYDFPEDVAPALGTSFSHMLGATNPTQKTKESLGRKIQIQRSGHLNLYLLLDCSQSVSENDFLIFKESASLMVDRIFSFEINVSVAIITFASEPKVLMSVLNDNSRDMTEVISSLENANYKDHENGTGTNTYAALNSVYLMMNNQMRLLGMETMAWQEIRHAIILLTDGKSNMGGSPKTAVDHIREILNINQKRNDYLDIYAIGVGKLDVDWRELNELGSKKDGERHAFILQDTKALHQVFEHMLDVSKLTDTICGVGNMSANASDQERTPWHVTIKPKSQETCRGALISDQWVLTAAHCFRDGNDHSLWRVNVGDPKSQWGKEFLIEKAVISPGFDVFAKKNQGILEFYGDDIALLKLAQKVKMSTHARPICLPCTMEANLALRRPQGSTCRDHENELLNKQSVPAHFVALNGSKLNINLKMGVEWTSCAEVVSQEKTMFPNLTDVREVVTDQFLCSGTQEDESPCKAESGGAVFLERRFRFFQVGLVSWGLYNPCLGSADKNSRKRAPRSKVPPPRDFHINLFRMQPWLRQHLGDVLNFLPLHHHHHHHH

human C2 V418A = biological target: T2, human C2 V418A (human, UniProt P06681 21-752)
T2 sequence: T1 sequence with V398A, A657G

human C2 N467A = biological target: T3, human C2 N467A (human, UniProt P06681 21-752)
T3 sequence: T1 sequence with N447A, A657G

human C2 T442A = biological target: T4, human C2 T442A (human, UniProt P06681 21-752)
T4 sequence: T1 sequence with T422A, A657G

Fold diff (human C2 G677A): 1 fold | Fold diff (human C2 V418A): 1 fold | Fold diff (human C2 N467A): 2 fold | Fold diff (human C2 T442A): 2 fold
B1: RF16-214 (antibody, V domains shown)
VH: EVQLLESGGGLVQPGGSLRLSCAASGFTFSWYQMMWVRQAPGKGLEWVSRIYPSGGGTAYADSVKGRFTISRDNSKNTLYLQMNSLRAEDTAVYYCARDAGYGDNWGQGTLVTVSS
VL: QSALTQPPSVSVSPGQTASITCSGDKLGEKYASWYQQKAGQSPVMVIYQDRKRPSGIPERFSGSNSGNTATLTISGTQAMDEADYYCQAWDTRAVVFGGGTKLTVLG
